The target of assay [1] is T1, human Sirpα-V1 on CHO-K1 cells (CHO-K1 hSirpα+ cell line) (human, UniProt P78324 31-504).
T1 construct: whole, on cells; also called hSirpα-v1+ cell strain
Put plainly: cell ELISA on CHO-K1 hSirpα+ cells. An excerpt: The readings on a microplate reader (MultiskanGO Thermo, Model 51119200) were subjected to data analysis by GraphPad prism 5.
The light and heavy chain variable region sequences of the aforementioned antibody of the present disclosure and the constant regions of different IgG types, for example human IgG1 (hIgG1), human IgG2 (hIgG2), human IgG3 (hIgG3) or human IgG4 (hIgG4), human light chain κ and λ types; murine mIgG1, mIgG2 or mIgG3, murine light chain κ and λ types, etc. were recombined, expressed and purified to obtain an entire human-murine chimeric antibody and a murine antibody.

Assay [2] addresses T2, human Sirpα-V1-hFc (human, UniProt P78324 31-373).
T2 construct: range 31-373; also called hSirpα (dimer); hSirpα-V1-hFc (dimer); not shown: human IgG1 Fc region at the C-terminus
As to the kind of experiment: blocking ELISA, competitor CD47-his. How it is done:
(§1) The recombinant proteins such as human Sirpα-V1-hFc/Sirpα-V1-his were diluted to concentrations of 5 μg/mL or 2 μg/mL respectively with a PBS buffer at pH 7.4, and then added into a 96-well ELISA plate (Corning, CLS3590-100EA) at a volume of 50 μL/well, and placed in an incubator at 37° C. for 2 hours. After the liquid was discarded, the wells were added with a blocking solution of 5% skimmed milk (skimmed milk powder available from Bright Dairy) diluted with PBS at 230 μL/well, and incubated in an incubator at 37° C. for 3 hours, or placed overnight at 4° C. (for 16-18 hours) for blocking. […] The plate was washed for 5 times, added with 50 μL/well of streptavidin-HRP (GenScript, M00091) or anti-his-HRP secondary antibody (GenScript, A00612) diluted at 1:1000, incubated at 37° C. for 1 hour, and then washed with PBST for 5 times. Each well was added with 50 μL of TMB (Surmodic, Cat #: TTMB-1000-01) for color development, and added with 50 μL/well of 1 M H₂SO₄ to stop the reaction. The readings on a microplate reader (MultiskanGO Thermo, Model 51119200) were subjected to data analysis by GraphPad prism 5. […]
On the technique in general: ELISA stands for enzyme-linked immunosorbent assay.

In a further assay the target is T3, Cyno Sirpα L933 (cynomolgus).
T3 construct: extracellular domain; also called Cyno Sirpα polymorphism 2 (L933)
As to the kind of experiment: ELISA.

Another assay addresses T4, Cyno Sirpα L932 (cynomolgus).
T4 chain: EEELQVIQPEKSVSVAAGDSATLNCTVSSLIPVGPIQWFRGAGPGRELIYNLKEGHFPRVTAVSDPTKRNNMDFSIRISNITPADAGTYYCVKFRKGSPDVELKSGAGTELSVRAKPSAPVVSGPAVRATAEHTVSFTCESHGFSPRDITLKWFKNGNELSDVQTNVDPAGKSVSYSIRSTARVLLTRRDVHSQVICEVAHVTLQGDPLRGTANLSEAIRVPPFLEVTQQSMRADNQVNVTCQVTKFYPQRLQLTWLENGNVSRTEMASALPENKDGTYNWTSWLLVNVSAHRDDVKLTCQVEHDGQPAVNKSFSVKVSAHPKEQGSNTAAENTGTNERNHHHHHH
As to the kind of experiment: ELISA.

Another assay addresses T5, Cyno Sirpα L936 (cynomolgus).
T5 construct: also called RB3-3; Cyno Sirpα polymorphism 3 (L936)
T5 chain: T4 chain with S28T, N51H, L52Q, A62S, D65E, P66S, R77H, L103V, V163F, L185V
As to the kind of experiment: ELISA.

The target of another assay is T6, Cyno Sirpα L937 (cynomolgus).
T6 construct: also called RB3-5; Cyno Sirpα polymorphism 4 (L937)
T6 chain: T4 chain with A62P
As to the kind of experiment: ELISA.

In assay [3] the target is T7, human Sirpα-V1-his (human, UniProt P78324 31-373).
T7 construct: range 31-373; Bought (Sino Biological 11612-H08H) or expressed in-house; also called hSirpα-V1; hSirpα-V1-his
As to the kind of experiment: blocking ELISA, competitor CD47-hFc. The method, then: as §1

The target in assay [4] is T2, human Sirpα-V1-hFc. As to the kind of experiment: blocking ELISA, competitor CD47-his. The method, then:
(§2) The recombinant proteins such as human Sirpα-V1-hFc/Sirpα-V1-his were diluted to concentrations of 5 μg/mL or 2 μg/mL respectively with a PBS buffer at pH 7.4, and then added into a 96-well ELISA plate (Corning, CLS3590-100EA) at a volume of 50 μL/well, and placed in an incubator at 37° C. for 2 hours. After the liquid was discarded, the wells were added with a blocking solution of 5% skimmed milk (skimmed milk powder available from Bright Dairy) diluted with PBS at 230 μL/well, and incubated in an incubator at 37° C. for 3 hours, or placed overnight at 4° C. (for 16-18 hours) for blocking. […] The plate was washed for 5 times, added with 50 μL/well of streptavidin-HRP (GenScript, M00091) or anti-his-HRP secondary antibody (GenScript, A00612) diluted at 1:1000, incubated at 37° C. for 1 hour, and then washed with PBST for 5 times. Each well was added with 50 μL of TMB (Surmodic, Cat #: TTMB-1000-01) for color development, and added with 50 μL/well of 1 M H₂SO₄ to stop the reaction. The readings on a microplate reader (MultiskanGO Thermo, Model 51119200) were subjected to data analysis by GraphPad prism 5.
This is another data set of the same source.

The target of assay [5] is T8, human T cells (expressing Sirpγ) (human, UniProt Q9P1W8 29-387).
T8 construct: whole, on cells; The target as printed is the cell; also called human PBMCs (T cells)
Put plainly: flow cytometry on PBMC. For orientation: A flow cytometer gives signals particle by particle.

In assay [6] the target is T7, human Sirpα-V1-his. As to the kind of experiment: ELISA.
Assay [7] addresses T7, human Sirpα-V1-his. Put plainly: blocking ELISA, competitor CD47-hFc. How it is done: as §2
This is another data set of the same source.

Assay [8] has as its target T7, human Sirpα-V1-his. Put plainly: ELISA. How it is done: (§3) Different antigens (recombinant proteins) such as the human Sirpα-V1-hFc, Sirpα-V1-his, Sirpα-V2-his, Sirpβ-his, Sirpγ-his, monkey Sirpα-his (cynoSirpα-his) or NOD-mSirpα-his described in Example 1 were diluted with a PBS buffer at pH7.4 to concentrations of 1 μg/mL, 2 μg/mL or 5 μg/mL, added into a 96-well ELISA plate (Corning, CLS3590-100EA) at a volume of 50 μL/well, and placed in an incubator at 37° C. for 2 hours. After the liquid was discarded, the wells were added with a blocking solution of 5% skimmed milk (skimmed milk powder available from Bright Dairy) diluted with PBS at 230 μL/well, and incubated in an incubator at 37° C. for 3 hours, or placed overnight at 4° C. (for 16-18 hours) for blocking. […] The plated was washed with PBST for 5 times, then added with 50 μL/well of TMB chromogenic substrate (KPL, Cat #: 52-00-03), incubated at room temperature for 10-15 min, added with 50 μL/well of 1 M H₂SO₄ to stop the reaction, and read by a […] Go microplate reader (ThermoFisher, Cat #: 51119200) for the absorbance value at 450 nm, and then a clone with high binding activity was selected or a EC₅₀ value was calculated according to the OD value. […]
This is another data set of the same source.

A further assay addresses human Sirpα-V2-his (human). Put plainly: ELISA. How it is done:
as §3

Substitutions are numbered along the chain they refer to. Read-outs that look alike come from different tables or passages of the source.

Chain of human Sirpα-V2-his (human) (chain, as listed by the source): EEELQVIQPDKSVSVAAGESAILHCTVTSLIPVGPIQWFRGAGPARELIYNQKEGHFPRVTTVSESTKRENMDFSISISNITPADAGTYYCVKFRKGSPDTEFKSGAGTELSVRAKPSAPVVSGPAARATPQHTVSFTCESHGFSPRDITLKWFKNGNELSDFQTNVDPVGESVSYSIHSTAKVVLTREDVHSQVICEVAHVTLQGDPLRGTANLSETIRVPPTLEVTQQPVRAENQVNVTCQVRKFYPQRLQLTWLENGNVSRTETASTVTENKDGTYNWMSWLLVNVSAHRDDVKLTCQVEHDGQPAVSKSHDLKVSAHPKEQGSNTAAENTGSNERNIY
T8 sequence (Q9P1W8 29-387): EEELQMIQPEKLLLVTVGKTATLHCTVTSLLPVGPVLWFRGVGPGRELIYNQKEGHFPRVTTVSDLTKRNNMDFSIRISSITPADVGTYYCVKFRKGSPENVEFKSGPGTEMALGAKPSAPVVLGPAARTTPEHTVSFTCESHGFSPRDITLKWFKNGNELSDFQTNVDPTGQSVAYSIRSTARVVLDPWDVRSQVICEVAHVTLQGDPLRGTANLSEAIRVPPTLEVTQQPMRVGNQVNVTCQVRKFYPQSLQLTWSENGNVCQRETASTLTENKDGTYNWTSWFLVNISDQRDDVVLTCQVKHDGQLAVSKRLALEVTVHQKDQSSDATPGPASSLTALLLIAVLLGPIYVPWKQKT

B1: human-murine chimeric antibody mab14c (antibody, human IgG4 S228P, kappa, V domains shown)
VH: QVHLQQPGAELVKPGASVKLSCKASGYNFNIYWINWVKQRPGQGLEWIGNIYPSSISTNYNEKFKTKATLTVDKSSNTVYMQFSSLTSEDSAVYYCARSEGTYYGGRYEGDWFGYWGQGTLVTVSA
VL: DIQMTQTTSSLSASLGDRVTISCRASQDIRNYLNWYQQKPDGTVKLLIYFTSTLHSGVPSRFSGSGSGTDYSLTISNLEQEDIATYFCQQGNTLPWTFGGGTKLEIKR
notes: hIgG4, κ
With B1, the EC50 in [1] was found to be 0.29 nM; with Cyno Sirpα L933 it was 0.14 nM; in the assay with Cyno Sirpα L932 it was 0.1 nM; with Cyno Sirpα L936, 0.099 nM; with Cyno Sirpα L937 it was 0.099 nM; with human Sirpα-V1-his [6] it was 0.093 nM. The EC50 with human Sirpα-V1-his [8] was 0.16 nM; with human Sirpα-V2-his, 0.14 nM. For the same molecule, the IC50 is 5.7 nM with human Sirpα-V1-hFc [2], 5.54 nM in the assay with human Sirpα-V1-his [3], 5.48 nM with human Sirpα-V1-hFc [4] and 9.98 nM in the assay with human Sirpα-V1-his [7]. Besides, the binding result in [5] is on record as “no binding (tested: 10 µg/mL)”.

Usually EC50 stands for the midpoint of the concentration-response curve. Low readings indicate a more potent agent, high ones a less potent agent. What is called IC50 is the concentration that inhibits the measured activity by half.

These data come from patent US20230106247A1 (L AND L BIO CO LTD NINGBO CHINA, published 2023).
